Patent publication US20160237160A1 (Bayer, published 2016)

Experiments:
Assay in all cases: SPR, TWEAKR-Fc immobilized, IgG injected, bivalent analyte model (avidity mode);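 note: kd derived as the ratio of fitted dissociation to association rate constants, with sensorgrams corrected against a reference flow cell and a buffer blank before fitting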
[1] = target: T1, TPP-599 (HUMAN-TNFRSF12Aaa28-80-hIgG1-Fc) (human)
T1 construct: dimeric; also called human TWEAKR Fc; TWEAKR-Fc
Method: (§1) Sensorgrams were generated after in-line reference cell correction followed by buffer sample subtraction. The dissociation equilibrium constant (KD) was calculated based on the ratio of association (kₒₙ₁) and dissociation rated (koff1) constants, obtained by fitting sensorgrams with a bivalent analyte model using Biavaluation Software (version 4.0).

[2] = target: T2, TPP-601 (MURINE-TNFRSF12Aaa28-80-hIgG1-Fc) (murine)
T2 construct: dimeric; also called murine TWEAKR Fc
Method: as §1

[3] = target: T3, TPP-1846 (MAC-TNFRSF12Aaa28-80-hIgG1-Fc) (macaca fascicularis)
T3 construct: bivalent antigen; also called mac fasc TWEAKR Fc
Method: as §1

[4] = target: T4, TPP-1779 (RAT-TNFRSF12Aaa28-80-hIgG1-Fc) (rat)
T4 construct: bivalent antigen; also called rat TWEAKR Fc
Method: as §1

[5] = target: T5, TPP-1778 (PIG-TNFRSF12Aaa28-80-hIgG1-Fc) (pig)
T5 construct: bivalent antigen; also called pig TWEAKR Fc
Method: as §1

[6] = target: T6, TPP-1777 (DOG-TNFRSF12Aaa28-80-hIgG1-Fc) (dog)
T6 construct: bivalent antigen; also called dog TWEAKR Fc
Method: as §1

B1: TPP-2090 (antibody, human IgG1, kappa, V domains shown)
VH: EVQLLESGGGLVQPGGSLRLSCAASGFTFSPYPMIWVRQAPGKGLEWVSYISPSGGSTHYADSVKGRFTISRDNSKNTLYLQMNSLRAEDTAVYYCARGGDTYFDYFDYWGQGTLVTVSS
VL: DIQMTQSPSSLSASVGDRVTITCRASQSISGYLNWYQQKPGKAPKLLIYQASSLQSGVPSRFSGSGSGTDFTLTISSLQPEDFATYYCQQSYTSPFITFGQGTKVEIKR
notes: Human IgG1
A Kd [1] of 15 nM, a Kd [2] of 4.1 nM and a Kd [3] of 21.2 nM were found for B1 in this work. For the same binder, the Kd [4] was 4.3 nM, the Kd [5] was 9.9 nM and the Kd [6] was 6 nM.
